Measured values taken from patent publication US20130011401A1.

Biological target: human monomeric APP-tagged SIRPα V domain protein (human) (UniProt P78324)
Test: BiaCORE SPR; binder captured on Protein A, monovalent APP-tagged SIRPα V domain as analyte (Method 2.1)

Kd: 3 µM
Substance: CD47-ECD IgG1 Fc fusion protein (from UniProt Q08722 19-141)
